Assay results reported in patent US20030166537A1, “Use of GDNF for treating corneal defects” (Biopharm Gesellschaft Zur Biotechnologischen Entwicklung …, priority 1999, published 2003).

Columns and labels:
Assay type in all cases: cell-based
[1] = system: ERK1, ERK2, JNK1 and JNK2; test: western blot of phosphorylated MAP kinases in cultured human corneal stromal keratocytes
Method: (§1) In order to evaluate the effect of GDNF and other neurotrophic factors on the activation of signal transduction pathways in cultured corneal epithelial and stromal keratocytes, western blots were performed for detecting an accumulation of phosphorylated MAP kinases ERK and JNK in the presence of GDNF, NGF and BDNF. Human stromal keratocytes were cultured in RPMI 1640 medium containing L-glutamine (glutaMAX) or DMEM with 10% FBS for one day and starved in serum-free medium for another day. Cultures were then washed with PBS and incubated in serum-free DMEM without additives or with recombinant human GDNF (200 ng/ml), recombinant human NGF (200 ng/ml) and recombinant human BDNF (200 ng/ml) (all obtained from R & D Systems, Mineapolis, Minn., USA) for 30 min. Some cultures were incubated with an inhibitor of MAP kinases (PD 98059, Torcris Cookson Ballwin, Mo., USA) at 100 μM for 1 h prior to exposure to neurotrophines. After washing with PBS, culture cells were solubilized in lysis buffer containing 50 mM Tris-Cl (pH 8.0), 150 mM NaCl, 0.02% sodium azide, 100 μg/ml PMSF, 1% Triton X-100 and a mixture of several protein inhibitors (Complete®, Boehringer Mannheim) (one tablet/50 ml buffer). 50 μg total protein per lane was fractionated by a 10% STS-MOPS NUPAGE Bis-tris gel (NOVEX, San Diego, Calif., USA) and blotted onto nitrocellulose membrane. Membranes were stained with diluted polyclonal antibodies against ERK1, ERK2, JNK1 and JNK2 (Santa Cruz Biotechnology, Santa Cruz, Calif., USA). Also a polyclonal antibody was used which recognizes the […] form of either ERK1 and ERK2 which was raised against the catalytic core of the phosphorylated threonine residue 183 and tyrosine residue 185 of mammalian ERK2. Similarily, a polyclonal antibody recognizing the phosphorylated form of JNK1 and JNK2 was used (both from Promega). In the last step the membranes were visualized with the ECL western blot analysis system (Amersham).

[2] = system: primary rabbit corneal epithelial cells; test: single cell clonal growth assay (colony formation, clonal proliferation); settings: D6
Source text: In order to evaluate the effect of GDNF on corneal proliferation, recombinant human GDNF was used (R&D, Minneapolis, Minn., USA). For the evaluation of the effect on corneal epithelial proliferaton a single cell clonal growth model was utilized which allows to determine the effect of the given growth factor on both colony formation as well as clonal expansion (Kruse et al., 1991). New Zealand white rabbits were housed and treated according to the ARVO Resolution of Animals in Research and under observation of German Federal Laws and the laws of the State of Baden-Württemberg. Prior to sacrifice with an intravenous overdose of pentobarbital, they received an intramuscular injection of xylazine hydrochloride and ketamine hydrochloride. The details of the clonal growth assay are described in Kruse et al. (1991). 5000 viable cells were seeded in each 16 mm dish in serum-free medium MCDB 151 with a supplement (S) of insulin (5 μg/ml), transferrin (5 μg/ml), selenium (5 ng/ml) and hydrocortisone (5 μg/ml) (all from Sigma, Deisenhofen, Germany). […] This quantification was facilitated by the use of dishes which contained a grit on the bottom which is roughly 2 mm wide (from Sarstedt, Newton, N.C., USA). For data collection the entire surface area of four randomly selected dishes for each condition was screened. Furthermore, the number of cells per colony was determined in 75 randomly selected colonies for each condition. Furthermore, the total number of cells/dish was calculated in order to carry out an evaluation for artemin. In order to stimulate the cellular proliferation, GDNF (50 or 200 ng/ml) or artemin (250 ng/ml) was added to the medium. In order to estimate the rate of proliferation after 12 days (a time when neighbouring colonies started to grow into each other and, therefore, prevented numerical quantification) dishes were fixed in −20° C. methanol and stained with methylene blue.
All experiments examining the effect of GDNF on corneal proliferation were performed in triplicate with cells from different donors. The influence of growth factor on colony formation, colony size and cell number was studied using one-way analysis of variance. […] Student's t-test was employed to determine which differences were significant after analysis of variance.

corneal epithelial cells = test: modified Boyden chamber migration assay; settings: 250 ng/ml in lower well
Method: In order to further evaluate the chemotactic effect of GDNF on corneal epithelial cells, a modified Boyden chamber assay was used. 4×10^5 cells from the either primary cultured cells or the corneal epithelial cell line were seeded onto tissue culture inserts containing a polyethylene terephthalate (PET) filter having a pore size of 8 μm (Falcon). Within 4 hours after seeding most cells had attached to the filter and formed a semiconfluent monolayer. The medium was then changed to SHEM without additives in the upper well and SHEM with GDNF (250 ng/ml) in the lower well. After 24 h of culture cells were removed from the surface of the insert by gentle scrubbing with a rubber policeman. Cells on the bottom of the insert (which had migrated through the filter) were fixed with −20° C. methanol and stained with crystal violet. The entire surface of the filters was screened for cells under the microscope.

[3] = system: ERK1, ERK2, JNK1 and JNK2; test: western blot of phosphorylated MAP kinases in cultured human corneal epithelium; settings: human epithelial cells
Method: as §1

[4] = system: primary human corneal stromal cells; test: proliferation of cultured stromal keratocytes (cell counting, Cell Titer 96 AQueous assay); settings: 20 or 100 ng/ml; serum-free medium; D6; p<0.005
Method: In order to investigate the effect of GDNF on the proliferation of cultured stromal keratocytes the cells were passaged from DMEM +10% FBS into DMEM +1% FBS or into DMEM without FBS at a density of 5×10^4 cells/60 mm dish. Some cultures received recombinant human GDNF at the above-mentioned concentrations. Proliferation was measured after 6 days by counting cells under the phase contrast microscope (50 fields at 100×magnification per condition) as well as trypsinized cells. Also a Cell Titer 96 AQueous One Solution proliferation assay (Promega) was performed according to the manufacturess description. For this calorimetric assay 500 or 1000 cells were grown for 6 days in 96-well-plates (Falcon). Upon addition to the culture well a titrazolium dye is bioreduced by cells into a colored formazan product and the absorbance is quantified at 490 nm. The quantity of the formazan product is proportional to the number of living cells in the well and can therefore serve to estimate proliferation.

B1: GDNF: recombinant human GDNF having the amino acid sequence of human wild-type GDNF (GenBank L19063, L15306) (protein)
chain: SPDKQMAVLPRRERNRQAAAANPENSRGKGRRGQRGKNRGCVLTAIHLNVTDLGLGYETKEELIFRYCSGSCDAAETTYDKILKNLSRNRRLVSDKVGQACCRPIAFDDDLSFLDDNLVYHILRKHSAKRCGCI
activated JNK2 [1]: not induced | phosphorylation of ERK1 and ERK2 ([1]; 200 ng/ml factor vs control): induced ERK1 to a limited extent | phosphorylation of JNK1 ([1]; vs serum-free medium): weakly induced | numbers of colonies per dish ([2]; GDNF 50 ng (p<0,05) and 200 ng (p<0.0001), serum-free MCDB): increased significantly | clonal proliferation (number of cells within each colony) ([2]; GDNF 50 and 200 ng/ml, p<0.01): significantly stimulated | increase of number of migrated cells over control (corneal epithelial cells): more than 6 fold | number of cells migrated through the filter (corneal epithelial cells; 8 μm pore size, 24 h, control 19±6.8): 117±37.6 | phosphorylation of ERK1 and ERK2 ([3]; 200 ng/ml factor vs serum-free control medium): induced | phosphorylation of JNK1/2 ([3]; vs control): not induced | proliferation of stromal keratocytes [4]: significantly enhanced
